Measured values as given in paper PMC6123721 (2018).

B1: 6D8 single-chain Fv (scFv) (scFv, V domains shown)
VH: QVQLQQSGDELVKPGASVKLSCTVSGFNIKDDFIHWMKQRPEQGLEWIGRIDPANGYTKYAPKFQDKATMTADTSSNTAYLQLSSLASEDAAVYYCATYGVAYWGQGTLVTVSA
VL: DIVLTQSPASLAVSLGQRATISCKASQSVDHDGDSYMNWFQQKPGQSPKLLIYAASNLESGIPARFSGSGSGTDFTLNIHPVEEEDAATYYCQQTNEDPYTFGGGTKLEIK

Columns and labels:
Experiment in all cases: ITC
[1] = biological target: B1
3D7-MSP2 = biological target: 3D7-MSP2
FC27-MSP2 = biological target: FC27-MSP2

Binder | Kd [1] [nM] | Kd (3D7-MSP2) [nM] | Kd (FC27-MSP2) [nM]
NAYNMSIRR [MSP2 14-22 peptide (minimal 6D8 epitope of merozoite surface protein 2)] | 6 | – | –
NAYNMSIRRSMANEGSNTNSV [FC27 MSP2 14-34 peptide (C-terminally extended epitope, FC27 allele)] | 16 | – | –
B1 | – | 61 | 13
NAYNMSIRRSMAESKPSTGAG [3D7 MSP2 14-34 peptide (C-terminally extended epitope, 3D7 allele)] | 64 | – | –
